Reference: patent publication US20110207796A1, “ALPHA-SYNUCLEIN KINASE” (Elan Pharma International Limited, priority 2008, published 2011)

What was measured:
[1] = molecular target: Polo like kinase 2 (PLK2) (human); assay: cell-based or functional assay
[2] = molecular target: human alpha-synuclein (wild-type, recombinant) (human); assay: cell-based or functional assay

percent phospho-synuclein by ELISA, PLK2, synuclein and synphilin co-transfected into HEK cells [1] [%]	percentage of phospho-synuclein by ELISA, cDNA transfected into PEAK-Syn cells [2] [%]	Binder
83.3		synphilin (protein, UniProt Q9Y6H5 1-919, looked up) MEAPEYLDLDEIDFSDDISYSVTSLKTIPELCRRCDTQNEDRSVSSSSWNCGISTLITNTQKPTGIADVYSKFRPVKRVSPLKHQPETLENNESDDQKNQKVVEYQKGGESDLGPQPQELGPGDGVGGPPGKSSEPSTSLGELEHYDLDMDEILDVPYIKSSQQLASFTKVTSEKRILGLCTTINGLSGKACSTGSSESSSSNMAPFCVLSPVKSPHLRKASAVIHDQHKLSTEETEISPPLVKCGSAYEPENQSKDFLNKTFSDPHGRKVEKTTPDCQLRAFHLQSSAAESKPEEQVSGLNRTSSQGPEERSEYLKKVKSILNIVKEGQISLLPHLAADNLDKIHDENGNNLLHIAASQGHAECLQHLTSLMGEDCLNERNTEKLTPAGLAIKNGQLECVRWMVSETEAIAELSCSKDFPSLIHYAGCYGQEKILLWLLQFMQEQGISLDEVDQDGNSAVHVASQHGYLGCIQTLVEYGANVTMQNHAGEKPSQSAERQGHTLCSRYLVVVETCMSLASQVVKLTKQLKEQTVERVTLQNQLQQFLEAQKSEGKSLPSSPSSPSSPASRKSQWKSPDADDDSVAKSKPGVQEGIQVLGSLSASSRARPKAKDEDSDKILRQLLGKEISENVCTQEKLSLEFQDAQASSRNSKKIPLEKRELKLARLRQLMQRSLSESDTDSNNSEDPKTTPVRKADRPRPQPIVESVESMDSAESLHLMIKKHTLASGGRRFPFSIKASKSLDGHSPSPTSESSEPDLESQYPGSGSIPPNQPSGDPQQPSPDSTAAQKVATSPKSALKSPSSKRRTSQNLKLRVTFEEPVVQMEQPSLELNGEKDKDKGRTLQRTSTSNESGDQLKRPFGAFRSIMETLSGNQNNNNNYQAANQLKTSTLPLTSLGRKTDAKGNPASSASKGKNKAA
	8.9	Protein kinase, cGMP-dependent, regulatory, Type I (enzyme, human, UniProt Q13976-2 1-686, looked up) MGTLRDLQYALQEKIEELRQRDALIDELELELDQKDELIQKLQNELDKYRSVIRPATQQAQKQSASTLQGEPRTKRQAISAEPTAFDIQDLSHVTLPFYPKSPQSKDLIKEAILDNDFMKNLELSQIQEIVDCMYPVEYGKDSCIIKEGDVGSLVYVMEDGKVEVTKEGVKLCTMGPGKVFGELAILYNCTRTATVKTLVNVKLWAIDRQCFQTIMMRTGLIKHTEYMEFLKSVPTFQSLPEEILSKLADVLEETHYENGEYIIRQGARGDTFFIISKGTVNVTREDSPSEDPVFLRTLGKGDWFGEKALQGEDVRTANVIAAEAVTCLVIDRDSFKHLIGGLDDVSNKAYEDAEAKAKYEAEAAFFANLKLSDFNIIDTLGVGGFGRVELVQLKSEESKTFAMKILKKRHIVDTRQQEHIRSEKQIMQGAHSDFIVRLYRTFKDSKYLYMLMEACLGGELWTILRDRGSFEDSTTRFYTACVVEAFAYLHSKGIIYRDLKPENLILDHRGYAKLVDFGFAKKIGFGKKTWTFCGTPEYVAPEIILNKGHDISADYWSLGILMYELLTGSPPFSGPDPMKTYNIILRGIDMIEFPKKIAKNAANLIKKLCRDNPSERLGNLKNGVKDIQKHKWFEGFNWEGLRKGTLTPPIIPSVASPTDTSNFDSFPEDNDEPPPDDNSGWDIDF
